Measured values taken from the DeepSol protein solubility set.

Test: soluble on expression in E. coli; label from the status in PepcDB or PDB records

Row | Sequence | soluble on expression in E. coli
1 | MSLSIFTDLNTSRKWQIDQWLSAVNSHIEKIQQYGHSVVNPTPLLADGFEIKTQSPVVWQFPDGHDAPISNFASQQNWLRLLISMSVITETEKYRHLAFCQSEYFLNRFVDENSGLFYWGGHRFINLDTLASEGPESKSMVHELKHHLPYYEFLHQVNPEKTRHFIQGFWNAHVEDWSCLDLGRHGDYARQRDPDVFLHSRHDVVTPANWPELPLTKGLTFVNAGTDLIYAAFVYARHTGDAHAAAWGKHLYRQYVLARNPETGMPVYQFSSPLQRQPVPADDNQTQSWFGDRAQRQFGPEFGAIAREANVLFRDMRPLLIDNPLAMLDILRHQPDAEILTWVIAGLKNYYQYAYDVNSNSLRPMWNNGQDMTDYCFKRDGYYGKAGTVLKPFPLEGDYLLPLVRAWLLSDDDDLHTLIVTMLSRLEKQGIHQSASPFLLLAITELAHAKQSAQWAEYAWQMAEILFKRYFHHGLFVRSEHHRYVRLDDPFPAILLTLIAACRNKWSEVPAVLTQGGYIHGDYRINGESRVIYDTGIYLPRKINEGHHHHHH | not soluble
2 | GAADPVVVPANMEPLTIEGNRFVTLCIMIRTTPWEVSRDVKLHPRDEVDWHTLEGVRALREAFATNNPNGRLTWGFTMNALEDGRKNYREIRDYVVECQKKYGDEVTYFPGYFPAMYLPRERVNREMSEAIEIISKMVGNGYRPQSIMGGFLSADNLRYLAEKENIHVAHAVIWSQHNIDGGGADGSPSYPFYPSTEHFCKPAQGKSDFIDCVNLDGWTMDFICARRSGQTGHGIDGYNSRRGVGPIETYKGWGLDLGHREVMHTEAIHFDKGLELNGFGWVANIWEAQMVHEFGKDLICDAMKMWVTGTKERWPDTHFVTFGEFGELWRKQYKSNDDWNYRFVERGSGLGDSYNNLEIKWFMNKEFRLALLRDWHTKNSPAYVIDFTRYDLQAHEPADPSPEKPAKDWSLINKINQKALRPQDKPVLIDKLEKEDQDLIRKYYPELLK | soluble
3 | MDGDGSSFEQFIMPPSALDRLASLHIEYPMLFQLSNVSVEKTSHCGVLEFTADEGLVYLPYWMMQNMSLEEGDVMQVKNISLVKGTYIKLQPHTQDFLDISNPKAILETTLRSYSCLTTGDTIMVPYNNKQYYINVVEAKPSSAVSIIETDCEVDFAPPLDYKEPEKPQKLTPSNKRPLQVKEEEEPASKVPKFTPFTGSGKRLDGKAQTQTEPEDTKQQEKPTENGKDDEKLSVTTPRQISGKLVFGSNSKSAAKETAKVDDPKNIVQESSTKSDEAKFKVFTGKKYSLNG | soluble
4 | MKEVLKLADEKFVMSFSGGKDSILALNRMLKKGYKPVALLTTISEEHGKSWTHNLEYNMLKQVSSNIGLPLLVAECGVEGYEESFERALIKAKNMGATICAYGDIDIESHRKWDTDRCEAVGMKVDLPLWQESREDLVYEFIDSGFCSVVTKVNLKHLGEEFLGKKLTRELVEKIKNAGADPCGEHGEYHTFVVDGPIFKKPVEYEVKGTLIKDGYGYLEIK | not soluble
5 | KKITRPIEKLSDTVSQMAKGQYDTRAKIKTDGEVGDLVNSFNIMADRLEKNIEELEDTARRQEDFTAAFAHELKTPLTSIIGYSDMMRSMDLEKEEISEYSNYIFLQGKRLEKLSFTLMDLISLDKQKIEFNRISTEKMFNDIEKTVEQMLREHNIRFKMSVEPAVIVGNEDLLKSLFMNIIDNGRKAISGQGIIALKAIKTEKGYTVFIQDNGCGMEKSEIKKITEAFYMIDKSRARKEGGAGIGMSLCKKIVSIHNAKWSVRSKPGKGTIISIVFQEGQN | not soluble
6 | MTLVSIVAPNLIEQGKVMEMLQGGRDNAIYRTGDRVSRPASSWTMTVHQLLNHLHSNGFTQCPKVIGIEGGKEWLSFVEGDTFNYPLQGSIASVTALLSAAKMLRRMHDASEDFLISHQSEVCHWMLPDRVPQEVICHGDFMPYNVALNGETVVGVFDFDTAHPAPRLWDVAFSIYGWAPFKTDENDRMGNLEQQIQRAKLFCDAYGCSKLERENLVDVMTLRLTALVDYMRLMASSRDERFQANLEEGHHIAYLQDIDYLRQHHQAITLGMLKER | not soluble
7 | MGSSHHHHHHSSGLVPRGSHMYHHYHAFQGRKLTDQERARVLEFQDSIHYSPRYSDDNYEYRHVMLPKAMLKVIPSDYFNSEVGTLRILTEDEWRGLGITQSLGWEHYECHAPEPHILLFKRPLNYEAELRAATAAAQQQQQQQQQQQQQQQQHQTQSISNDMQVPPQIS | soluble
8 | PVSQPDAPGHQRKVVSWIDVYTRATCQPREVVVPLTVELMGTVAKQLVPSCVTVQRCGGCCPDDGLECVPTGQHQVRMQILMIRYPSSQLGEMSLEEHSQCECRPKKKDSAVKPDSPRPLCPRCTQHHQRPDPRTCRCRCRRRSFLRCQGRGLELNPDTCRCRKLRR | soluble
9 | PLNRLGHKIYQHSGKWLQETAAEKLNQRDQLINPGHAQVLILGMGRIGTGAYDELRARYGKISLGIEIREEAAQQHRSEGRNVISGDATDPDFWERILDTGHVKLVLLAMPHHQGNQTALEQLQRRNYKGQIAAIAEYPDQLEGLLESGVDAAFNIYSEAGSGFARHVCKQLEPQFTSIK | soluble
10 | MGSDKIHHHHHHMQVRDFIKHLKNGERPPLTLILGEESALRQQAQHAIASMIPEDQQAMNFGRYDMQQTPVGAALNDATSMPFFGDYREVVIDDPYFLTGEKNADKIDHDLAGLQAYFENPVPSTMMVIIAPYKKLDERKRLTKALKKAALIVNAAPLDEREARAALAQTFKKHQVTIDAPALDTLVQRTNGQYSIMMGEVRKLLTYASDGSPLTVAAVEALVPKQLNDRVFDLVTDVLRKNAAAALALYRDLLAQREEPIRLNALMLGQFRLLLQVKLLAKKGYSQGDIAGTLKAHPYRVKLAMRQVDRLPYQQLATAYSGLVDTETAMKTGTIDKALAFELFMLKYTGQQSGKHVRG | not soluble
11 | MKIYIQPLSVNSHTVEVLANSLPKIFNAEVFVLPASDVSLKCYNASRRQYNSTCILRMLPPIKVTLGVTGKDIYAKGMNFVFGEAELGGARAVLSVFRLTTADSELYRERVVKEAVHEIGHVLGLKHCSNNCVMRFSNSVQDVDRKPVSFCRECASKIRYLEHHHHHH | soluble
12 | MVAVPEGYESLLERPLYGHLATVRPDGTPQVNAMWFAWDGEVLRFTHTTKRQKYRNIKANPAVAMSVIDPDNPYRYLEVRGLVEDIVPDPTGAFYLKLNDRYDGPLTEPPADKADRVIIVVRPTAFSKQVA | soluble
13 | MMQEETFYSVRMRASMNGSHEDGGKHISGGERLIPFHEMKHTVNALLEKGLSHSRGKPDFMQIQFEEVHESIKTIQPLPVHTNEVSCPEEGQKLARLLLEKEGVSRDVIEKAYEQIPEWSDVRGAVLFDIHTGKRMDQTKEKGVRVSRMDWPDANFEKWALHSHVPAHSRIKEALALASKVSRHPAVVAELCWSDDPDYITGYVAGKKMGYQRITAMKEYGTEEGCRVFFIDGSNDVNTYIHDLEKQPILIEWEEDHDS | not soluble
14 | MSNGQLVSQVTVGHDKPLDREKVCPMLLRVFVANNRHNPMSEYNSRNGGSVPPSELQMHTWMDCSLRELTSLIKEVNPDARRKGTTFDFAIVQADRGSPRYILRDVGNTTNGERGIDDNKTLQQCKFEVGDFVDVAISLPSQGRRFNNREQGDRFDHRQRQRSPIR | not soluble
15 | MGSDKIHHHHHHMTGIPTHKAVQQSDFGIFAKEVSPFSPNRTINYVHRDDYYILGVVKSGTCHVSIDFKEYVFSAGDVVCTQPNQVHHIIDTGNADVLLLFIDGVFIDTPTKQIIAEYVLSPVPFKINDIQYTDLGQLFSMILRRMNGGNPDCKSKAVIQNLSCAIVGIITDNIQKYIGQNHKNRRHIEITLALKALFSEEKQLNRSVSYYAEALHISPVYLNEVVKNVTGESVSKYIQNELILRAKRMLVYTSLNVREISIDLGIEDYAYFTRLFTKAVGVNPTSYRKKYLE | not soluble
16 | MRKPKITVIGGGTGSPVILKSLREKDVEIAAIVTVADDGGSSGELRKNMQQLTPPGDLRNVLVAMSDMPKFYEKVFQYRFSEDAGAFAGHPLGNLIIAGLSEMQGSTYNAMQLLSKFFHTTGKIYPSSDHPLTLHAVFQDGTEVAGESHIVDHRGIIDNVYVTNALNDDTPLASRRVVQTILESDMIVLGPGSLFTSILPNIVIKEIGRALLETKAEIAYVCNIMTQRGETEHFTDSDHVEVLHRHLGRPFIDTVLVNIEKVPQEYMNSNRFDEYLVQVEHDFVGLCKQVSRVISSNFLRLENGGAFHDGDLIVDELMRIIQVKKLEHHHHHH | soluble
17 | MNATPASADDLIVIGKIYSVHGVRGEVKVYSFTDPIGNLLDYKTWTLRREGSVEKQVELVSGRLQSKFLVVKLKGLDDREEARLLSGYEICVPRNLFPDLDDGEYYWYQLEGLKVIDQLGQLLGKIDHLLETGSNDVMVVKPCAGSLDDRERLLPYTEQCVLAIDMAAGEMKVEWDADFLEHHHHHH | soluble
18 | SVDMQSLDEEDFSVSKSSDADAEFDIVIGNIEDIIMEDEFQHLQQSFMEKYYLEFDDSEENKLSYTPIFNEYIEILEKHLEQQLVERIPGFNMDAFTHSLKQHKDEVSGDILDMLLTFTDFMAFKEMFTDYRAEKEGRGLDLSTGLVVKSLNSSSASPLTPSMASQSI | not soluble
19 | MSNRNLRSSTNSDLAEGQHQTPSSDSSGHGEDQPQASPGPNKKSHTPKKNISKGAVLHEKPMTVMVLTATEPFNYKEGKENMFHATVATESQYYRVKVFNMDLKEKFTENKFITISKYFNSSGILEINETATVSEAAPNQMFEVPKNIIRSAKETLKISKIKELDSGTLIYGVFAVEKKKVNDKSITFKIKDNEDNIKVVWDKEQHNINYEKGDKLQLFSFHLRKGNGKPILHSGNHSFIKGEKLLKESFEGDGYHKGPKQVVALKATKLFTYDSIKSKKMFHATVATDTEFFRVMVFEENLEKKFIPGNTIALSDYFGMYGSLAIHEYSSVSEVKSQNKEDSSSSDERPIEHLKICDLHLQTKERLVDGEFKVYRKSSGNNCICYGIWDDTGAMKVVVSGQLTSVNCEIGNTIRLVCFELTSNADEWFLRATRYSYMEVIMPEK | soluble
20 | MVFLDPIHRIDVVTLSELSRLGFRRSGDFVYRPECHLCRQCLSCRVPVADFQMNSMQKKAWKRNQDLTMTVLPTRQASQIHYDLYERYINERHADGDMFPPSLDQFEKFLVHSCTDSFFLELWKDNRLISVSTCDLMDDGLSAVYTFFDPDEHRRSLGVYSILNQIEYVKTLGLEYVYLGYWVPHSAKMNYKSQYTPLELLLDGQWRRLNRSLSPEEINQLGNSLMTTLPSEWNNLIIKLEHHHHHH | not soluble
21 | VKIRLHTLLAVLTAAPLLLAAAGCGSKPPSGSPETGAGAGTVATTPASSPVTLAETGSTLLYPLFNLWGPAFHERYPNVTITAQGTGSGAGIAQAAAGTVNIGASDAYLSEGDMAAHKGLMNIALAISAQQVNYNLPGVSEHLKLNGKVLAAMYQGTIKTWDDPQIAALNPGVNLPGTAVVPLHRSDGSGDTFLFTQYLSKQDPEGWGKSPGFGTTVDFPAVPGALGENGNGGMVTGCAETPGCVAYIGISFLDQASQRGLGEAQLGNSSGNFLLPDAQSIQAAAAGFASKTPANQAISMIDGPAPDGYPIINYEYAIVNNRQKDAATAQTLQAFLHWAITDGNKASFLDQVHFQPLPPAVVKLSDALIATISS | soluble
22 | MDSYGYIETMGLLTAIEAADAALKAANVVFTNCYIVKGGIVTVELAGDVAAVTAAVEAGSESARKLGNFISKNVIARVDDETKKILKGDTFISDNNKDGKTEKEISEEELLQNEMEKEEESIEELDALEEIIKADIPTAEGDIPLYDEVIKSPEFSELENDEEAKIITETVKRNDSDGEPYETQEKITVIEEEINTKQTNNNTDYENMKVTDLRGIVKELNSHLTWNQVKAMNKKKLVETLKKNKREK | not soluble
